For test [1], the target named is mouse 80S ribosomes (monosomes) and polysomes (mouse (endogenous in neocortex and Neuro2a)) (UniProt P84099). As to the kind of experiment: cryo-EM structure.
In test [2] the target is rabbit reticulocyte 60S ribosomal subunit (rabbit (endogenous in reticulocyte lysate)) (UniProt G1SV32). Kind of test: co-sedimentation.

The term Kd denotes the equilibrium constant for the complex coming apart.

In test [1], “ErbB3-binding protein 1 (Ebp1), endogenous full-length mouse protein (from UniProt P50580-1 1-394) (natural protein)” displayed an overall occupancy of 52%; a percent of ribosomes with Ebp1 bound of 48%; a percent of ribosomes with Ebp1 bound, each of the five sub-states of 50%.

In test [2], “polyhistidine-tagged full-length recombinant Ebp1 (Ebp1-His) (from UniProt P50580 1-394) (natural protein)” showed an Ebp1 concentration at saturated binding (100 nM 60S) of 200 nM and a Kd of 0.124 µM.
